From the RNAGym collection of RNA variant scans (doi:10.7554/elife.80360)

B1: HDV Ribozyme (parent)
chain: GGCCGGCAUGGUCCCAGCCUCCUCGCUGGCGCCGGCUGGGCAACAUUCCGAGGGGACCGUCCCCUCGGUAAUGGCGAAUGGGACCCA

Variants of: B1
Assay: self-cleavage, relative activity (ratio to wild type); higher = more cleavage; co-transcriptional

Compared with G34U C64U, G35A C48A is higher in self-cleavage: 0.246 for the first, 0.659 for the second.

First: C36A A43G
Second: C33U G81U
The self-cleavage of the first is higher: 0.277 for the first, 0.177 for the second.

First: G35C U69C
Second: G35A A45C
The self-cleavage of the first is higher: 0.291 for the first, 0.0378 for the second.

Going from C36A G59C to G35U G54C, the self-cleavage rises from 0.0978 to 0.517.

First: C33G G67U
Second: C33U U79A
The self-cleavage of the first is lower: 0.111 for the first, 0.684 for the second.

Going from G34U U37A to G34U U37C, the self-cleavage falls from 0.158 to 0.148.

First: G35U C64U
Second: C33G G59C
The self-cleavage of the first is higher: 0.449 for the first, 0.201 for the second.

Going from G34U G50U to C33U C48A, the self-cleavage rises from 0.191 to 0.631.

First: G34A C57U
Second: C33G G52U
The self-cleavage of the first is higher: 0.332 for the first, 0.119 for the second.

Compared with G34A A51C, G35U A87G is higher in self-cleavage: 0.193 for the first, 0.257 for the second.

Compared with C36A A51U, C36A A51G is higher in self-cleavage: 0.17 for the first, 0.269 for the second.

Compared with C36A A51C, G35U G82A is lower in self-cleavage: 0.277 for the first, 0.0841 for the second.

First: G34C G82C
Second: G34U C36G
The self-cleavage of the first is higher: 0.117 for the first, 0.0302 for the second.

Compared with G35A U79C, G35A U60G is higher in self-cleavage: 0.282 for the first, 0.554 for the second.

Compared with G34C C41G, C33G G50C is higher in self-cleavage: 0.107 for the first, 0.246 for the second.

Compared with C33G G50A, G35A G38C is lower in self-cleavage: 0.148 for the first, 0.0652 for the second.

First: G34U C44A
Second: G34A C63A
The self-cleavage of the first is lower: 0.0545 for the first, 0.231 for the second.

Going from G34U G52A to G34U C57G, the self-cleavage falls from 0.208 to 0.178.

Going from G34C A70U to G35U G68C, the self-cleavage rises from 0.0378 to 0.4.

Compared with C33U G74U, C33U G74C is lower in self-cleavage: 0.41 for the first, 0.0339 for the second.

Going from G35U C84A to G34A G50A, the self-cleavage falls from 0.308 to 0.16.

Going from G35C C63G to G34C A71C, the self-cleavage rises from 0.0449 to 0.201.

Compared with G34C A71G, C33G U79C is higher in self-cleavage: 0 for the first, 0.0875 for the second.

Compared with C33G U79A, G34C G52A is higher in self-cleavage: 0.0755 for the first, 0.17 for the second.

First: G34A G54A
Second: G34A U65A
The self-cleavage of the first is higher: 0.16 for the first, 0.0692 for the second.

Compared with G34A U65C, G34A U65G is higher in self-cleavage: 0.141 for the first, 0.178 for the second.

First: G34A G74C
Second: C36A A87G
The self-cleavage of the first is lower: 0.102 for the first, 0.125 for the second.

First: G34C C57G
Second: G35C G67A
The self-cleavage of the first is lower: 0.0978 for the first, 0.148 for the second.

Compared with C36A C62G, C33U A87C is higher in self-cleavage: 0.17 for the first, 0.745 for the second.

Compared with G35C U46A, C36A C63A is higher in self-cleavage: 0.101 for the first, 0.237 for the second.

Going from G34A G39C to C33U C62G, the self-cleavage rises from 0.0707 to 0.635.

Compared with C33U C62A, G34C G55C is lower in self-cleavage: 0.583 for the first, 0.261 for the second.

First: G35U G52C
Second: C36A G50C
The self-cleavage of the first is higher: 0.366 for the first, 0.113 for the second.

Compared with G34C U72C, C33U G80U is lower in self-cleavage: 0.19 for the first, 0.179 for the second.

Compared with C33U G80A, G35U A83C is higher in self-cleavage: 0.12 for the first, 0.181 for the second.

Compared with G35U A83G, G35C C58U is lower in self-cleavage: 0.241 for the first, 0.231 for the second.

Going from G35C C58G to G34A C86A, the self-cleavage falls from 0.161 to 0.0683.

Going from G35A A87U to G34A U47G, the self-cleavage falls from 0.391 to 0.0791.

First: G35C G54C
Second: G35C U79G
The self-cleavage of the first is lower: 0.17 for the first, 0.214 for the second.

First: C33U C86A
Second: G35C A51C
The self-cleavage of the first is higher: 0.746 for the first, 0.297 for the second.

Compared with G35C A51G, G34A G55U is lower in self-cleavage: 0.415 for the first, 0.192 for the second.

First: G34A G55A
Second: G35A G54C
The self-cleavage of the first is lower: 0.17 for the first, 0.69 for the second.

Compared with C33U G67A, G34C C58A is lower in self-cleavage: 0.749 for the first, 0.161 for the second.

Going from G34U C61A to G35U A51C, the self-cleavage rises from 0.0608 to 0.332.

Going from G34A C75A to G35C A43U, the self-cleavage falls from 0.107 to 0.0386.

Going from G34A C49G to G34A U72A, the self-cleavage rises from 0.155 to 0.17.

Compared with G34U A56U, G34U U79G is lower in self-cleavage: 0.18 for the first, 0.0978 for the second.

Going from C33U A78G to G34U C85U, the self-cleavage falls from 0.228 to 0.164.

Compared with G35C G40U, C33U C49G is higher in self-cleavage: 0.145 for the first, 0.855 for the second.

Compared with G35U A77G, G34U A42G is lower in self-cleavage: 0.305 for the first, 0.0449 for the second.

First: G34C G81A
Second: G35C C61G
The self-cleavage of the first is lower: 0.16 for the first, 0.217 for the second.

First: G35A C64U
Second: G35A G55C
The self-cleavage of the first is higher: 0.475 for the first, 0.358 for the second.

Going from G35A A71G to C36A G68A, the self-cleavage falls from 0.464 to 0.293.

Going from C33U C75U to C33U C75G, the self-cleavage rises from 0.0817 to 0.222.

First: G35A A83C
Second: G34C G35C
The self-cleavage of the first is lower: 0.0692 for the first, 0.246 for the second.

Going from C33G G80U to C33G G80A, the self-cleavage rises from 0.0528 to 0.0631.

Going from G35U C66G to G35U C66A, the self-cleavage falls from 0.458 to 0.332.

Compared with G34A G81A, G34U G39U is lower in self-cleavage: 0.128 for the first, 0.115 for the second.

First: G34U G39C
Second: G35U G74A
The self-cleavage of the first is higher: 0.111 for the first, 0.058 for the second.

Going from G35U G74U to C33U G40U, the self-cleavage rises from 0.182 to 0.78.

Compared with G35C C44G, C33G G82U is lower in self-cleavage: 0.145 for the first, 0 for the second.

Compared with G35U C63U, G35U C63G is lower in self-cleavage: 0.513 for the first, 0.262 for the second.

First: G35A C62U
Second: G35A C62G
The self-cleavage of the first is higher: 0.665 for the first, 0.448 for the second.

First: G34A C62G
Second: C33U G50C
The self-cleavage of the first is lower: 0.13 for the first, 0.786 for the second.

Compared with C33U G50A, G35C C48A is lower in self-cleavage: 0.774 for the first, 0.269 for the second.

First: G34C C85A
Second: G34C C85G
The self-cleavage of the first is higher: 0.249 for the first, 0.125 for the second.

First: G35U U47G
Second: C33G G76U
The self-cleavage of the first is higher: 0.295 for the first, 0.116 for the second.

Going from C36A G73C to G35A C75U, the self-cleavage falls from 0.178 to 0.133.

Going from G35A C75A to G34A G80A, the self-cleavage falls from 0.151 to 0.0241.

First: C36A C61G
Second: G34C A78C
The self-cleavage of the first is higher: 0.269 for the first, 0.0898 for the second.

Going from G34C A78G to C33U G54U, the self-cleavage rises from 0.0755 to 0.901.

Going from C33U G54C to C33U G54A, the self-cleavage rises from 0.623 to 1.05.

Going from G34U G40U to G34C C62G, the self-cleavage falls from 0.0882 to 0.0639.

Going from C33U A45U to G35U A45C, the self-cleavage falls from 0.57 to 0.0475.

First: G35U A45U
Second: G34A U60C
The self-cleavage of the first is higher: 0.289 for the first, 0.258 for the second.

Compared with G34C G76A, C33U G53U is higher in self-cleavage: 0.163 for the first, 0.916 for the second.

Going from C33U G39A to G34U G82A, the self-cleavage falls from 0.182 to 0.123.

Compared with G34U G76C, G34U G76A is higher in self-cleavage: 0.0821 for the first, 0.231 for the second.

First: C33U C66U
Second: C33G U72G
The self-cleavage of the first is higher: 0.774 for the first, 0 for the second.

Compared with C33G U72A, C33U G76A is higher in self-cleavage: 0 for the first, 0.978 for the second.

First: C33U G59U
Second: G35U G39C
The self-cleavage of the first is higher: 0.855 for the first, 0 for the second.

First: G35C G73C
Second: C36A C57U
The self-cleavage of the first is higher: 0.269 for the first, 0.102 for the second.

First: G35C C64A
Second: G35A G74U
The self-cleavage of the first is lower: 0.113 for the first, 0.231 for the second.

For C33G C64U, the self-cleavage was 0.306.
